From article PMC6796840, “An H3K27me3 demethylase-HSFA2 regulatory loop orchestrates transgenerational thermomemory in Arabidopsis” come the findings set out here.

This data set concerns the target His-HSFA2 (Arabidopsis thaliana, UniProt O80982 1-345). The experiment in a line: EMSA; HSFA2: 10 mM Tris-HCl pH 7.6, 25 mM KCl, 2.5 mM MgCl2, 1 mM EDTA, 1 mM DTT, 10% glycerol, 25 C 30 min; REF6C: 25 mM Tris-HCl pH 8.0, 100 mM NaCl, 2.5 mM MgCl2. The settings on record: protein: recombinant; tags: His (pET32a in Methods); chain copies: 3; label: Cy5 end. In general terms: A gel shift assay detects complexes by their altered migration in electrophoresis.

His-HSFA2, sequence (O80982 whole entry): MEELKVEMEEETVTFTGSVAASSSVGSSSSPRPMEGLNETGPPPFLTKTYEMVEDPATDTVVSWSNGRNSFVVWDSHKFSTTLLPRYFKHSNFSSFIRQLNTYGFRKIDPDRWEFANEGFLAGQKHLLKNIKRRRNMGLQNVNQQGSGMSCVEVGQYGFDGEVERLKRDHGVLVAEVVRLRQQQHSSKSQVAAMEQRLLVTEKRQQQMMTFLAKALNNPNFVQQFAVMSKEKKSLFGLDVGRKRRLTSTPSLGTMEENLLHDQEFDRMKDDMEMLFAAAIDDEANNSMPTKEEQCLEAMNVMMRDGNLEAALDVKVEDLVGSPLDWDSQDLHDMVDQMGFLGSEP

B1: BRM-HSE-P1 (dsDNA)
DNA 1: AGCCAGTGGCGATAAGAACAAATTTATTCAGGAATCAGAAACACTTATCGCCACTGGCT
DNA 2: AGCCAGTGGCGATAAGTGTTTCTGATTCCTGAATAAATTTGTTCTTATCGCCACTGGCT
Consider B1, for which the binding result was “binds”.

B2: SGIP1-HSE-P4 (dsDNA)
DNA 1: AGCCAGTGGCGATAAGCTCTGAAAAGTTTCTGTCGAAGTCTTATCGCCACTGGCT
DNA 2: AGCCAGTGGCGATAAGACTTCGACAGAAACTTTTCAGAGCTTATCGCCACTGGCT
For the molecule B2, the binding result is “binds”.

B3: BRM-HSE-P2 (dsDNA)
DNA 1: AGCCAGTGGCGATAAGTTTTACTTGTTTCGGGAAAAAAAACTACTTATCGCCACTGGCT
DNA 2: AGCCAGTGGCGATAAGTAGTTTTTTTTCCCGAAACAAGTAAAACTTATCGCCACTGGCT
With B3, the binding result is on record as “binds”.

B4: REF6-HSE-P1 (dsDNA)
DNA 1: AGCCAGTGGCGATAAGCTACTAATTTCATGAACTACCAAAGACTCTTATCGCCACTGGCT
DNA 2: AGCCAGTGGCGATAAGAGTCTTTGGTAGTTCATGAAATTAGTAGCTTATCGCCACTGGCT
Turning to B4, the binding result was “binds”.

B5: BRM-HSE-P3 (dsDNA)
DNA 1: AGCCAGTGGCGATAAGATTTTTATTTTTCGAGAAGCCATCTCACTTATCGCCACTGGCT
DNA 2: AGCCAGTGGCGATAAGTGAGATGGCTTCTCGAAAAATAAAAATCTTATCGCCACTGGCT
For B5, the binding result was “binds”.
